Source: the nanobody polyreactivity screen of Harvey et al. (2022)

test: yeast display, Sf9 membrane polyspecificity reagent, FACS + sequencing; frameworks hold sequencing errors
Summary of the method: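 Synthetic nanobody libraries on Saccharomyces cerevisiae BJ5465 were galactose-induced for 36–48 hours, stained 1 hour at 4 °C with 10% biotinylated, detergent-solubilized Sf9 membrane reagent and enriched on streptavidin microbeads. FACS then separated cells into low and high (top ~1%) gates by anti-HA (expression) and streptavidin (reagent binding) fluorescence. Genes were colony-PCR amplified, MiSeq 2 × 250 sequenced and CDR-length filtered. A clone's polyreactivity label is that of its gate of origin.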

Which “polyreactivity (PSR sort gate)” value does the source give for “QVQLVESGGGLVQAGGSLRLSCAASGSTISFLIMGWYRQAPGKERELVAAISRSGGRTYYADSVKGRFTISRDNAKNTVYFQMNSLKPEDTAVYYCAADYVSVDRIRYGYWGQGTQVTVSS” here?
The value was “high polyreactivity”.

For “QVQLVESGGGLVQAGGSLRLSCAASGSTFGGYAMGWYRQAPGKERELVAAISGSGVRTYYADSVKGRFTISRDNAKNTVYLQMNSLKPEDTAVYYCAKRVRYPGDRYYYWGQGTQVTVSS”, which “polyreactivity (PSR sort gate)” value is on record?
The value was “high polyreactivity”.

With “QVQLVESVGGFVQAGGSLRLSSAASGFIFRSYAMGSYRQAPGKERELVAVISRRGVNTHYADSVKGRFTISRDYAKYTVYLQMNSLKPEDTAVYDCAKGLTALGDYWGQGSQVTVSS” as the sequence, how does the “polyreactivity (PSR sort gate)” value read?
Its value is “high polyreactivity”.

Which “polyreactivity (PSR sort gate)” value does the source give for “QVQHVESGGGIVQAGGSLRLSCAASGIIFTSNAMGWYRQAPGKERELVAAINWSGARTYYADSVKGRFTISRDNAKNTVYLQMNSLKPEDTAVYYCNVVTRAATYPDYSYDYWGQGTQVTVSS” here?
Its value is “high polyreactivity”.

With “QVQLVESGGGLVQAGGSLRLSCAASGRISLFNAMGWYRQAPGKERELVAAITYTGGSTYYADSVKGRFTISRDNAKNTVYLQMNSLKPVDTAVYYCAADPWTAKDDSWGQGTQVTVSS” as the sequence, how does the “polyreactivity (PSR sort gate)” value read?
Its value is “high polyreactivity”.

Which “polyreactivity (PSR sort gate)” value does the source give for “QVQLVESGGGLVQAGCSLRLSCAASGFTFRANGMGWYRQAPGKERELVATITSGGTTNYADSVKGRFTISRDNAKNTVYLQMNSLKPEDTAVYYCAKRFGPAYFRLYDYWGQGTQVTVSS” here?
The value was “low polyreactivity”.

Which “polyreactivity (PSR sort gate)” value does the source give for “QVQLVESGGGLVQAGGSLRLSCAAYGSIFSENAMGWYRQAPGKEWELVADITDGGGSTYYADSVKGRFTISRDNAKNPVYLQMNSLKPDDTAVYYCNAQIFFFAPWYYEYDYWGQCTQVTVSS” here?
The value was “low polyreactivity”.

Which “polyreactivity (PSR sort gate)” value does the source give for “QVQLVESGGGLVQAGGSLRLSCAASGRTFYYYAMGWYRQAPGKERELVARIRSGGSTNYADSVKGRFTISRDNAKNTVYLQMNSLKPEDTAVYYCNALGAKGYVKGFDYWGQGTQVTVSS” here?
The value was “low polyreactivity”.

Which “polyreactivity (PSR sort gate)” value does the source give for “QVQLVETGGGLVQAGGSLRLSCAASGFTFYSYAMGWSRQSPRKEREFVAAGSTYYADSVKGRFTISRDYAKNTVYLQMNSLKPEDTAVYYCAADSYDVSRRYEYEYWVQGTQVTVSS” here?
The value was “low polyreactivity”.

With “QVQLVESGGGLVQAGGSLRLSCAASGSIFKKNAMGWYRQEPGKERELVAAITRRGASTYYADSVKGRFTISRDNAKNNVYLQMNSLKREDTAVYYCAAPGKIGASFDNYYYWGQGTQVTVSS” as the sequence, how does the “polyreactivity (PSR sort gate)” value read?
The value was “high polyreactivity”.

With “QVQLVESGGGLVQAGGSLRLSCAASGFIFEYNTMGWYIQAPGKERELVAAISFIGGRTYYADSVKRRFTLSRDNAKNTVYLQMNSLKPVDTAVNYCNKRYGGYYSGARRVLYYYWGQGTQVTVSS” as the sequence, how does the “polyreactivity (PSR sort gate)” value read?
Its value is “high polyreactivity”.

For “QVQLVESGGGLVQAGGSLRLSCAASGRPFDFYAMGLYRQAPGKERELVADISTGGSTYYADSVKGRFTISRDNAKNTVYLQMNSLKPEDTAVYYCAAVGQDYYKVRYYYWGQGTQVTVSS”, which “polyreactivity (PSR sort gate)” value is on record?
Its value is “low polyreactivity”.

For “QVQLVESGGGLVQAGGSLRLSCAASGRIFQPYALGWYRQAPGKEREWVAAITRRAGSTYYADSVQGRFTISRDNAKNTVYLQMNSLKPDDTAVYYCAARGLYWAYEMEYWGQGTQVTVSS”, which “polyreactivity (PSR sort gate)” value is on record?
The value was “low polyreactivity”.

With “QVQLVESGGGLVQAGGSLRLSCAASGSTFVYYTMGWYRQAPGKERELVATITYGGGSTYYADSVKGRFTISRDNAKNTVYLQMNSLKPEVTAVYYCAARPSWVRKMYYWGQGTQVTVSS” as the sequence, how does the “polyreactivity (PSR sort gate)” value read?
The value was “high polyreactivity”.

Which “polyreactivity (PSR sort gate)” value does the source give for “QVQLVESGGGLVQAGGSLRLSCAASGGTIYLNAMGWYRQAPRKERELVAGITWGGGRTYYADSVKGRFTISRDNAKNTVYLQMNSLKPEDTAVYYCASGAWRGPYSGYYYWGQGTQVTVSS” here?
The value was “low polyreactivity”.

With “QVQLVESGGGLVQAGGSLRLTCAASGFIFAYYVMGWYRQAPGKERELVAAITSSDGITYYADSVKGRFTISRDNAKNTVYLQMNSLKPEDTAVYYCNADVYPDVGWRESDYWGQGTQVTVSS” as the sequence, how does the “polyreactivity (PSR sort gate)” value read?
The value was “low polyreactivity”.

For “QVQLVESGGALVQAGGILRLSCAASGRTFQYNVMGWYRQAPGKEREFVAAITWNGGSTYYADSVKGRFTISRDKAKNTVYLQMISLKPEDPAVYYCAARWTKKLEYGYWGQGTQVTVSS”, which “polyreactivity (PSR sort gate)” value is on record?
The value was “low polyreactivity”.

With “QVQLVESGGGLVQAGGSLRLSCAASGSIFVRNVMGWYRQAPGKERELVAGISWNGGSTFYADSVKGRFTISRDNAKNTVYLQMNSLKPEDTAVDYCATPYGRHGWFYLYDYWGQGTQVTVSS” as the sequence, how does the “polyreactivity (PSR sort gate)” value read?
The value was “low polyreactivity”.

With “QVQLVESGGGLVQAGGSLRLSCAAYGRTFWSYAMGWYRQAPGKERELVADISLDDGTTYYADSVKGRFTISRDNAKNTVYLHMNSLKPEDTAVYYCAAERDQGDDGYGPDYGYWGQGTQVTVSS” as the sequence, how does the “polyreactivity (PSR sort gate)” value read?
Its value is “high polyreactivity”.

Which “polyreactivity (PSR sort gate)” value does the source give for “QVQLVESGGGLVQAGGSLRLSCAASGSIFGWYAMGWYRQAPGKERELVADISYIGVSTYYADSVKGRFTISRDNAKNTVYLQMNTLKPEDTAVYYCATYYLLYPIPYGYPRSPEYEYWGQGTQVTVSS” here?
The value was “low polyreactivity”.

With “QVQLVESGGGLVQAGGSLRLSCAASGSTFRTNAMGWYRQAPGKERELVAGITSGTSTNYADSVKGRFTISRDNAKNTVYLQMNSLKPEDTAVYYCNTDRIWYGPEYDYWGQGTQVTVSS” as the sequence, how does the “polyreactivity (PSR sort gate)” value read?
The value was “low polyreactivity”.

Which “polyreactivity (PSR sort gate)” value does the source give for “QVQLVESGGGLVQAGGSLRLSSAASGSTFPYVKGWYRQAPGKESEFVAAISQRTGSTYYADSVKGRFTISRDNAKNTVYLQMNSLKPEDTAVYYCAKPGYLRPSRYDYWGQGTQVTVSS” here?
Its value is “high polyreactivity”.

For “QVQLVESGGGLVQAGGSLRLSCAASGRIFKLYAMGWYRQAPGKERELVAAISTSAGSTNYADSVKGRFTISRDNSKNTVYLQMNSLKPEDTAVYYCAVAGVSTYYTYYYWGQGTQVTVSS”, which “polyreactivity (PSR sort gate)” value is on record?
The value was “low polyreactivity”.

Which “polyreactivity (PSR sort gate)” value does the source give for “QVQLVESGGGLVQAGGSLRLSCAASGIFRRYAMGWYRQAPGKERELVATITSGGSTNYADSVKGRFTISRDNAKNTVYLQMNSLKPEDTAVYYCNALYGARRYTRWYTGMDYWGQGTQVTVSS” here?
Its value is “high polyreactivity”.

With “QVQLVESAGGLVQAGGSLSLSCAASGLTFHYYHMGWYRQATGKETELVAAITSSGGRTYYADSVKGRFTISRDNEKNTVFLQMNSLKPEDTAVYFCAADIYPDWIYLLYGYWGQGTQVTVSS” as the sequence, how does the “polyreactivity (PSR sort gate)” value read?
Its value is “low polyreactivity”.

With “QVQLVESGGGLVQAGGSLRLSCAASGSTFQSNAMGWYRQAPGKERELVAAITVSAGSTYYADSVKGRFTISRDNAKNTVYLQMNSLKPEDTAVYFCAANRYVYPSYRFDYWGQGTQVTVSS” as the sequence, how does the “polyreactivity (PSR sort gate)” value read?
Its value is “low polyreactivity”.

With “QVQLVESGGGLVQAGGSLRLSCAASGSIFKPYAMGWYRQAPGKERELVAAISGIGGSTYYADSVKGRFTISRDNAKNTVYLQMNCLKPEDTAVYYCAADTFFKIFSEYNYWGQGTQVTVSS” as the sequence, how does the “polyreactivity (PSR sort gate)” value read?
Its value is “high polyreactivity”.

For “QVQLVESGGGLVQAGGSLRLSCAASGGIFVYNMGWYRQAPGKERELVAAISVSGGSTYYADSVKGRFTISRDNAKNTVYLQMNSLKPEDTAVYYCAASRPPYRDDYWGQGSQVTVSS”, which “polyreactivity (PSR sort gate)” value is on record?
Its value is “high polyreactivity”.

For “QVQLVESGGGLVQAGGSLRLSCAASGSTLRSYVMGWYRQAPGKERELVAAISIRGDSTYYADSVKGRFTISRDNAKNTVYLQMNSLKPEDTAVYYCAAASNRYPNSWYYYWGQGTQVTVSS”, which “polyreactivity (PSR sort gate)” value is on record?
Its value is “high polyreactivity”.

Which “polyreactivity (PSR sort gate)” value does the source give for “QVQLQESGGGLVQAGGDLRLSCAASGTIFRDYIMGWYRQAPGKEREFVAGIDRGANTNYADSVKGRFTISRDNAKNTVYLQMNSLKPEDTAVYYCAADWWRVDMDYWGQGTQVTVSS” here?
The value was “low polyreactivity”.

Which “polyreactivity (PSR sort gate)” value does the source give for “QVQLVESGGGLVQAGGSLRLSCAASGITFKSYAMGWYRKAPGKERELVAAITRSGGSTYYADSVKGRLTISRDNAKNTVYLQMNSLKPEDTAVYYCAARYFIAYPQYTYDYWGQGTQVTVSS” here?
Its value is “high polyreactivity”.

With “QVQLVESGGGLVQAGGSLRLSCAASGNTFGLYAMGWYIQAPGKERELVAAIRRGGRTYADSVKGRFTISRDNAKNTVYGQMNSLKPEDTAVYYCAAYYVFLDNDYWGQGSQVTVSS” as the sequence, how does the “polyreactivity (PSR sort gate)” value read?
Its value is “high polyreactivity”.
